From publication PMC6744478
pKd: −log10 of the molar value.

Key:
[1] = target: RGS7/TS-Gβ5 duplex (human) (UniProt P49802); assay: pull-down; Expi293 cells co-transfected with RGS7, TS-Gβ5, R7BP-HIS and either WDR61 (sample A) or R7BPΔNC (sample B); lysate on MagStrep type3 XT beads, 4 °C, one hour; Western blot with anti-Gβ5 and anti-R7BP, bands quantified
[2] = target: R7BPΔNC (construct R7BPΔNC-TEV-TS) (human) (UniProt Q6MZT1); assay: SPR; OpenSPR (Nicoya), Streptavidin sensor chip; tagged R7BP variant as ligand, purified R7-RGS/Gβ5 duplex as analyte at 3–5 concentrations; PBS pH 7.4, 0.005% Tween20; 25 µL per minute; 1:1-binding model; two independent experiments

RGS11/Gβ5 duplex, sequence (O94810 whole entry): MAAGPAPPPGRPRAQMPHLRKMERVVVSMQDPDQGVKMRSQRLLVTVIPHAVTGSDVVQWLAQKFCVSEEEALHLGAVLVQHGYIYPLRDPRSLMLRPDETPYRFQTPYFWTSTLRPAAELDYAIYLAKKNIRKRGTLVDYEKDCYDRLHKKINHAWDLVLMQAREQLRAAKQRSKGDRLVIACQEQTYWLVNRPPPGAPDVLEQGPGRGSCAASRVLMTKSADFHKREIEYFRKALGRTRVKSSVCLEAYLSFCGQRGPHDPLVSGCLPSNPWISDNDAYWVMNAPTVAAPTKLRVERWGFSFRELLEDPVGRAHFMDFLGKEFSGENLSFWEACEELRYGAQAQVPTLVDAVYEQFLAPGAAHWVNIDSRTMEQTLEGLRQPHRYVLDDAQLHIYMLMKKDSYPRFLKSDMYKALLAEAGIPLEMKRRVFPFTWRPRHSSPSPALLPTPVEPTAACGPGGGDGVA
RGS11/Gβ5 duplex, sequence (O14775 43-395): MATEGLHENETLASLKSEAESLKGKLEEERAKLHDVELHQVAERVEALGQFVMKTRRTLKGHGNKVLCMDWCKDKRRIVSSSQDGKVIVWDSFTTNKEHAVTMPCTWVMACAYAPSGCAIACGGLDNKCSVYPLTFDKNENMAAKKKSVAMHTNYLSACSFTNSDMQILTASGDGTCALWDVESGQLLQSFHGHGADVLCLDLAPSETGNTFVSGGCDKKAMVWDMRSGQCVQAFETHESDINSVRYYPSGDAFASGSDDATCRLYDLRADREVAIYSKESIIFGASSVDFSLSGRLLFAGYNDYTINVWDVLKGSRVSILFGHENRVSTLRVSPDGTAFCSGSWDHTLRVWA
RGS9/Gβ5 duplex, sequence (O75916 whole entry): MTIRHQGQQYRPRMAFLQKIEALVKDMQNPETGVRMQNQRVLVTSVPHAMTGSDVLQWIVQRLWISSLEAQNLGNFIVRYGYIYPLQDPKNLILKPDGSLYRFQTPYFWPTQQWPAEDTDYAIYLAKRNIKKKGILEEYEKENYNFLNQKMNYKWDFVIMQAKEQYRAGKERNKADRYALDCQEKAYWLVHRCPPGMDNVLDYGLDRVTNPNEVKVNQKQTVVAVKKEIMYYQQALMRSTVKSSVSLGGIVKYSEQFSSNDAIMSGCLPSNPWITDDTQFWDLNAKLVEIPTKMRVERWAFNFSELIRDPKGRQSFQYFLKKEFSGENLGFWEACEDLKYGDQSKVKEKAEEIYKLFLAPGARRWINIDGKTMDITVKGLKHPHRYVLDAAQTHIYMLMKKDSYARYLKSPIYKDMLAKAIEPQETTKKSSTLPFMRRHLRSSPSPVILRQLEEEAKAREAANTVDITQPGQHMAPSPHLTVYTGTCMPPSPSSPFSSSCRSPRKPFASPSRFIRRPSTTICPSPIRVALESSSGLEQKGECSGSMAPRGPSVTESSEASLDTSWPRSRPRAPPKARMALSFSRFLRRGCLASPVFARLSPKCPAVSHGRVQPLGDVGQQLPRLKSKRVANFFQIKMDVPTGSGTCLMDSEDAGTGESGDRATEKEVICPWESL
RGS9/Gβ5 duplex, sequence (O14775 43-395): as the sequence (O14775 43-395) above
RGS6/Gβ5 duplex, sequence (P49758 whole entry): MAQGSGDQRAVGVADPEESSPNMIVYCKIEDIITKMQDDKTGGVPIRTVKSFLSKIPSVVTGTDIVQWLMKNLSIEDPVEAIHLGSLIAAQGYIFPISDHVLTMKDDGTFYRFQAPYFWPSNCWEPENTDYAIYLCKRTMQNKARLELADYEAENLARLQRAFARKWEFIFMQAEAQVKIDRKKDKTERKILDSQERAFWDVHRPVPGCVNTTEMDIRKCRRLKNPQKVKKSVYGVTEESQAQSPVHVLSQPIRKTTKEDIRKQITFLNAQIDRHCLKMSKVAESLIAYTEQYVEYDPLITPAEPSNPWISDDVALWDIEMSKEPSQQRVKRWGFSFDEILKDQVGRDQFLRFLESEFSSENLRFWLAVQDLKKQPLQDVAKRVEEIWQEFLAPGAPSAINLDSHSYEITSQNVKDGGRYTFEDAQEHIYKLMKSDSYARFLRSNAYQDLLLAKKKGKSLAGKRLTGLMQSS
RGS6/Gβ5 duplex, sequence (O14775 43-395): as the sequence (O14775 43-395) above
RGS7/TS-Gβ5 duplex (human), sequence (P49802 whole entry, chain 1 of 2): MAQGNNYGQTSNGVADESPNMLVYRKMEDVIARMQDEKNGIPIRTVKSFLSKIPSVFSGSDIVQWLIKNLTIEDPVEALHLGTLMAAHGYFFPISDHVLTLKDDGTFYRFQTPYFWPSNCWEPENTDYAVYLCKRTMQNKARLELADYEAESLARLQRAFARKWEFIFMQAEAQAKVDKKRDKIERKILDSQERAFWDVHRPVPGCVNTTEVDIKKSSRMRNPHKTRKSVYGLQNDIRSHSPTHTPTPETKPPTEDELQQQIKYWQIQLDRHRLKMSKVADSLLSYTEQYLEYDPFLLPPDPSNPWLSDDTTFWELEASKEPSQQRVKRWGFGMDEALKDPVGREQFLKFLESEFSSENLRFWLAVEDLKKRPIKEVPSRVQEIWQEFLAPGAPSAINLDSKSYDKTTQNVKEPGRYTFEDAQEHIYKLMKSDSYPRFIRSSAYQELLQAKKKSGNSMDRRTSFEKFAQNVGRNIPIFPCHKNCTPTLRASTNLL
RGS7/TS-Gβ5 duplex (human), sequence (O14775 43-395, chain 2 of 2, further chain): as the sequence (O14775 43-395) above
RGS7/Gβ5 duplex, sequence (P49802 whole entry): as the sequence (P49802 whole entry, chain 1 of 2) above
RGS7/Gβ5 duplex, sequence (O14775 43-395): as the sequence (O14775 43-395) above

Row | percent reduction of the binding of R7BP-FL with the RGS7/Gβ5 duplex [1] | pKd [2] | Substance
1 | 50% |  | R7BPΔNC (construct R7BPΔNC-TEV-TS) (from UniProt Q6MZT1 21-223) (domain or fragment)
2 |  | 8.82 | RGS6/Gβ5 duplex (from UniProt P49758 1-472; O14775-2 1-353) (complex)
3 |  | 8.64 | RGS7/Gβ5 duplex (from UniProt P49802 1-495; O14775-2 1-353) (complex)
4 |  | 8.49 | RGS9/Gβ5 duplex (from UniProt O75916 1-674; O14775-2 1-353) (complex)
5 |  | 8.82 | RGS11/Gβ5 duplex (from UniProt O94810 1-467; O14775-2 1-353) (complex)
